Source: PMC5864754, “Cryo-EM structure of the polycystic kidney disease-like channel PKD2L1” (Nature Communications, 2018)

Target: the molecule itself
Experiment: cryo-EM structure; purified PKD2L1 (64-629) in amphipols, 20 mM HEPES pH 7.5, 150 mM NaCl, about 5 mg/ml; C4 symmetry applied; 3.38 Å

B1: PKD2L1 (residues 64–629) (domain or fragment, mouse, UniProt A2A259 64-629, looked up)
chain: TLVSSCCLHICRSIRGLWGTTLTENTAENRELYVKTTLRELVVYIVFLVDICLLTYGMTSSSAYYYTKVMSELFLHTPSDSGVSFQTISSMSDFWDFAQGPLLDSLYWTKWYNNQSLGRGSHSFIYYENLLLGAPRLRQLRVRNDSCVVHEDFREDILNCYDVYSPDKEDQLPFGPQNGTAWTYHSQNELGGSSHWGRLTSYSGGGYYLDLPGSRQASAEALQGLQEGLWLDRGTRVVFIDFSVYNANINLFCILRLVVEFPATGGTIPSWQIRTVKLIRYVNNWDFFIVGCEVVFCVFIFYYVVEEILEIHLHRLRYLSSVWNILDLVVILLSIVAVGFHIFRTLEVNRLMGKLLQQPDTYADFEFLAFWQTQYNNMNAVNLFFAWIKIFKYISFNKTMTQLSSTLARCAKDILGFAIMFFIVFFAYAQLGYLLFGTQVENFSTFVKCIFTQFRIILGDFDYNAIDNANRILGPVYFVTYVFFVFFVLLNMFLAIINDTYSEVKEELAGQKDQLQLSDFLKQSYNKTLLRLRLRKERVSDVQKVLKGGEPEIQFEDFTSTLRELG
modifications: oligosaccharides identified on N241 and N207; glycosylation site N177
notes: Mus musculus PKD2L1, residues 64-629; lacks the EF hand and the coiled-coil domain; residues 101-563 are visible in the structure; Homotetrameric channel; Cloned in a pCAG vector; also called PKD2L1_64–629; truncated PKD2L1; source: exchanged into amphipols
Q: With B1 as the protein, how does the “stoichiometry N” value read?
A: 4
